Measured values reported in patent CN114685663A (UNIV SOUTHWEST, dated 2022).

Assays:
[1] = target: T1, rSLY D4 (猪链球菌 (Streptococcus suis)); experiment: Western blot
T1 construct: also called SLY D4结构域
T1 chain: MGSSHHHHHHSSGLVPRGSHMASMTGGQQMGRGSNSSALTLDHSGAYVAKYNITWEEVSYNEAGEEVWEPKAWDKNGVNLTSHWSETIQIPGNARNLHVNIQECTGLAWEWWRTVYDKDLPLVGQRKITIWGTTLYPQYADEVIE

[2] = target: T2, rLLO D1-3 (单增李斯特菌 (Listeria monocytogenes)); experiment: Western blot
T2 construct: also called LLO D1-3结构域
T2 chain: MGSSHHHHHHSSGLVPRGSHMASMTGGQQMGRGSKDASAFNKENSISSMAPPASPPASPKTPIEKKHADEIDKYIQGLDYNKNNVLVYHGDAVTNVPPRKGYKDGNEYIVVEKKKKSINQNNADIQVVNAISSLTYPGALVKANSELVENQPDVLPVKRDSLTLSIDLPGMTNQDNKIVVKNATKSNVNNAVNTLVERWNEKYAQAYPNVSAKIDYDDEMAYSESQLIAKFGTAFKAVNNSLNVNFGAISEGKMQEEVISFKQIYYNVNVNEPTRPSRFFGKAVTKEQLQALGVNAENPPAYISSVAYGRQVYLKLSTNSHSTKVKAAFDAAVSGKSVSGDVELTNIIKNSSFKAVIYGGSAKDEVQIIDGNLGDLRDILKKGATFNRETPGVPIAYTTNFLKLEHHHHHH

[3] = target: T3, rLLO D4 (单增李斯特菌 (Listeria monocytogenes)); experiment: Western blot
T3 construct: also called LLO D4结构域

[4] = target: 猪溶素 (Suilysin, SLY), recombinant rSLY (猪链球菌 (Streptococcus suis))
[5] = target: 肺炎链球菌溶血素 (Pneumolysin O, PLY), recombinant rPLY (肺炎链球菌 (Streptococcus pneumoniae))
[6] = target: 李斯特菌溶血素 (Listeriolysin O, LLO), recombinant rLLO (单增李斯特菌 (Listeria monocytogenes))

B1: 抗胆固醇依赖性细胞溶素的抗体 (antibody, V domains shown)
VH: QVQLQQSGPGLVKPSQTLSLTCAISGDSVSSNSVAWNWIRQSPSRGLEWLGRTYYRSKWYNDYAVSVKSRITINPDTSKNQFSLQLNSVTPEDTAVYYCVRVDNSGWGNWGQGTLVTVSS
VL: EIVMTQSPLSSPVTLGQPASISCRSSQSLVHRDGNTYLSWLRQRPGQPPRLLIYKISNRFSGVPDRFSGSGAGTDFTLKISRVEAEDVGIYYCMQATQFPTFGGGTKVEIKR
notes: also called 胆固醇依赖性细胞溶素抗体; 抗胆固醇依赖性细胞溶素抗体
- binding result [1]: no binding (tested: 抗体1:1000稀释)
- binding result [2]: binds
- binding result [3]: no binding (tested: 抗体1:1000稀释)
- EC50 [4]: 0.00018 µM
- EC50 [5]: 49.9 µM
- EC50 [6]: 44.9 µM
